The values that follow come from US20210130459A1 (YISSUM RESEARCH DEVELOPMENT COMPANY OF THE HEBREW …, published 2021).

Test [1] concerns the target human Nectin4-Ig (Nectin4-Fc fusion protein) (human) (UniProt Q96NY8). The test can be described thus: microscale thermophoresis with fluorophore-labeled human Nectin4-Ig. In general terms: MST reads how a fluorescent partner responds to local heating, with and without ligand.
The target of test [2] is T1, murine Nectin4 expressed on cells (murine, UniProt Q8R007 31-508).
T1 construct: whole, on cells; also called mNectin4
T1 sequence (looked up): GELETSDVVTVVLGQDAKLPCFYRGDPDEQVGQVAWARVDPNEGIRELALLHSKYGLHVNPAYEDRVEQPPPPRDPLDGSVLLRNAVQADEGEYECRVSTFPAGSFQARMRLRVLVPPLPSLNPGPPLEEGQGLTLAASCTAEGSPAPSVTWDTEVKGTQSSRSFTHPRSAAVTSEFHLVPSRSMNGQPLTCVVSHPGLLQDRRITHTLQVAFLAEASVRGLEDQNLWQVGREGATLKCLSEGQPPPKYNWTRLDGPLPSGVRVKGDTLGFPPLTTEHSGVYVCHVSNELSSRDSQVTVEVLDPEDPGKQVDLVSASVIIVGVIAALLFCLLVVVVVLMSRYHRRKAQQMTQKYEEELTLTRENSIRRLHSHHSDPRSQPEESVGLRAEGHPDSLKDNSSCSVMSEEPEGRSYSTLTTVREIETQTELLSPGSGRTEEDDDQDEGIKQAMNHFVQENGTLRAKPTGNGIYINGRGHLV
The test can be described thus: FACS staining of RAJI cells transfected with murine Nectin4. The protocol: (A) Western blots of RAJI cells transfected with murine Nectin4 (indicated as mNectin4) and detected with commercial anti-murine Nectin4 mAb (Clone 356704 which doesn't work for flow cytometry). Expression was compared to RAJI cells expressing empty vector (indicated as Empty). Staining for hGAPDH was used as loading control. (B-C) FACS staining of RAJI cells transfected with murine Nectin4 (black line histograms). Cells were stained with 0.2 μg of (B) clone hNec4.01 or (C) clone hNec4.05.
RAJI cells were transfected with murine Nectin4 (black line histograms). First, RAJI cells transfected with murine Nectin4 lysates was used in Western blot assay with a commercial anti murine Nectin4 mAb (Clone 356704) in order to verify murine Nectin4 expression (A). Next, the cells were stained with 0.2 μg of (B) clone hNec4.01 or (C) clone hNec4.05.

The target in test [3] is T2, human Nectin4 expressed on cells (human, UniProt Q96NY8 32-510).
T2 construct: whole, on cells; also called PVRL4; native human Nectin-4
T2 sequence (looked up): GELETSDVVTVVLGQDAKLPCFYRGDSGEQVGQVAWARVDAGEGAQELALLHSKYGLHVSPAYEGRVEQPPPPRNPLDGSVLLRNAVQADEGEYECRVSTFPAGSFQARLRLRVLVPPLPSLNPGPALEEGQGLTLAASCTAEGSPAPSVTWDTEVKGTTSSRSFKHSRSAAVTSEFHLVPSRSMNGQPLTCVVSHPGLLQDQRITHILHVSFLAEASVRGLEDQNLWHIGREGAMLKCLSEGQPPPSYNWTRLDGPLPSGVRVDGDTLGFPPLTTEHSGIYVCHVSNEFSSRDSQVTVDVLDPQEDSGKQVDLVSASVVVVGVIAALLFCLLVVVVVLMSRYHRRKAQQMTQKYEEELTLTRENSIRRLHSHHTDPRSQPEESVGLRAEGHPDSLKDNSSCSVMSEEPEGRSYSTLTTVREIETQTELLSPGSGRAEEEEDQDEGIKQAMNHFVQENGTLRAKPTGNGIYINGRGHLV
Description: FACS blocking assay, RAJI cells transfected with human Nectin4, 1 µg clone, then 3 µg Nectin1-Ig; blocked ligand Nectin1-Ig. The protocol: FIGS. 6A-6C Blocking of Nectin4-Nectin1 interactions. (A-B) FACS staining of RAJI cells transfected with human-Nectin4. Cells were pre-incubated with 1 μg of (A) clone hNec4.01, or (B) clone hNec4.05 and then incubated with 3 μg of Nectin1-Ig (black line histograms). Staining without blocking appears as gray line. Grey filled histograms are background control staining of secondary antibody only. (C) Mean Fluorescence Intensity (MFI) values of FACS staining of A and B.
For staining of human TIGIT-Ig or human Nectin1-Ig, cells were incubated on ice for 1 hour with 3 μg of TIGIT-Ig per 100,000 cells. Detection was performed with a secondary Alexa Fluor 647 anti-human (Jackson ImmunoResearch) for 30 min on ice. For blocking experiments cells were pre-incubated with 1 μg of the indicated antibody prior to the TIGIT-Ig or human Nectin1-Ig staining. In some cases, cells were incubated with 8 ug/ml of the indicated Ab together with human TIGIT-Ig or human Nectin-1-Ig (at 20 ug/ml). Detection of ligand binding was performed with a secondary Alexa Fluor 647 anti-human Ab (Jackson ImmunoResearch).
The ability to the anti-Nectin4 to block Nectin4-Nectin1 interactions was also determined. […] Cells were Pre-incubated with 1 μg of (FIG. 6A) clone hNec4.01 or (FIG. 6B) clone hNec4.05 and then incubated with 3 μg of Nectin1-Ig (black line). Staining without blocking appears as gray line. […]

In test [4] the target is T1, murine Nectin4 expressed on cells. The test can be described thus: FACS titration on CHO cells transfected with murine Nectin-4, compared with MDA-MD-453 cells. The procedure: (§1) FIGS. 8A-8C Antibody clones hNec4.05 and hNec4.11 binding to cell surface Nectin-4. (A) Antibody binding to Nectin-4 expressed on the human cell line MDA-MD-453 was evaluated by FACS analysis. […] (B) Antibody binding to CHO cells transfected with Cynomolgus (Cyno)-Nectin-4 and analyzed as in A. (C) Antibody binding to CHO cells transfected with murine-Nectin-4 and analyzed as in A. ND—not detected.
(§2) Binding of murine anti-human Nectin-4 clones hNec4.05 and hNec4.11 to Nectin-4 expressed on the human cell line MDA-MD-453 was evaluated by FACS analysis. […] FIG. 8B depicts antibody binding to CHO cells transfected with Cynomolgus (Cyno)-Nectin-4 and FIG. 8C depicts antibody binding to CHO cells transfected with murine-Nectin-4. […] This may be important for pre-clinical studies of the Ab.

In test [5] the target is T2, human Nectin4 expressed on cells. The test can be described thus: FACS titration (20-0.01 nM) on the human cell line titled 'MDA-MD-543' on the sheet (MDA-MD-453 in the legend). The procedure:
as §1, §2

The target is the same in test [6]. The test can be described thus: FACS titration on MDA-MD-453 cells. The procedure: as §1, §2

B1: monoclonal antibody hNec4.01 (antibody, IgG1, V domains shown)
VH: EVQLQQSGPELVKPGASVKIACRASGYTFTAYNIHWVSQRHGKSLEWIGYIYPNNGGSGYNQKFMNKATLTVDHSSNTAYMELRSLTSEDSAVYYCAIFDYDEAWFIYWGQGTLVTVSA
VL: ENVLTQSPEIMSASPGEEVTMTCSASSSVSYMHWFQQKSTISPKLWIYDTSKLASGVPGRFSGSGSGKSYSLTIRNMEAEDVATYYCFQGSGSPYTFGGGTKLEIK
notes: also called Nectin4.01; Clone 1
The Kd is the equilibrium constant for the complex coming apart. A lower Kd goes with a tighter complex. B1 gave a dissociation constant (Kd) in test [1] of 0.107 nM. Also, the binding result was “no binding (tested: 0.2 µg)” in test [2] and “binds” in test [3].

B2: monoclonal antibody hNec4.05 (antibody, IgG1, V domains shown)
VH: QVQLQQSGPELVKPGASVRISCKASGYTFTTYYIHWVKQRPGQGLEWIGWIYPGNVNTKNNEKFKVKATLTADKSSSTAYMQLSSLTSEDSAVYFCARSNPYVMDYWGQGTSVTVSS
VL: SIVMTQTPKFLLVSAGDRVTITCKASQSVSNDVAWYQQKPGQSPKLLIYYASNRYTGVPDRFTGSGYGTDFTFTISAVQAEDLAVYFCQQDYSSPYTFGGGTKLEIK
notes: also called Nectin4.05; Clone 5
With B2, the Kd in test [1] was 0.272 nM. Also, the binding result was “no binding (tested: 0.2 µg)” in test [2] and “binds” in test [3].

B3: monoclonal antibody hNec4.11 (antibody, V domains shown)
VH: QVQLQQSGPELVKPETSVKISCKASGYTFTSYYIHWVKQRPGQGLEWIGWIYPGNVNTKYNERFKGKATLTADKSSNTAHMQLTSLTSEDSAVYFCARSNPYVMDYWGQGTSVTVSS
VL: SIVMTQTPKFLLVSAGDRVTITCKASQSVNNDVAWYQQKPGLSPELLMYYASNRFTGVPDRFTGSGYGTDFTFTISSVQAEDLAIYFCQQAYRSPYTFGGGTKLEIQ
notes: also called Nectin4.11; clone 11
With B3, the “fold EC50 against the EC50 for the human target” value in test [4] was around 10 fold. In test [5], the binding result is given as “binds”.

B4: chimeric clone hNec4.11hIgG1 (antibody, V domains shown)
VH: QVQLQQSGPELVKPETSVKISCKASGYTFTSYYIHWVKQRPGQGLEWIGWIYPGNVNTKYNERFKGKATLTADKSSNTAHMQLTSLTSEDSAVYFCARSNPYVMDYWGQGTSVTVSS
VL: SIVMTQTPKFLLVSAGDRVTITCKASQSVNNDVAWYQQKPGLSPELLMYYASNRFTGVPDRFTGSGYGTDFTFTISSVQAEDLAIYFCQQAYRSPYTFGGGTKLEIQ
notes: also called human IgG1 chimeric Ab clone hNec4.11; chimeric version of hNec4.11
B4: the binding result in test [6] is on record as “binds”.

B5: chimeric clone hNec4.05hIgG1 (antibody, V domains shown)
VH: QVQLQQSGPELVKPGASVRISCKASGYTFTTYYIHWVKQRPGQGLEWIGWIYPGNVNTKNNEKFKVKATLTADKSSSTAYMQLSSLTSEDSAVYFCARSNPYVMDYWGQGTSVTVSS
VL: SIVMTQTPKFLLVSAGDRVTITCKASQSVSNDVAWYQQKPGQSPKLLIYYASNRYTGVPDRFTGSGYGTDFTFTISAVQAEDLAVYFCQQDYSSPYTFGGGTKLEIK
notes: also called human IgG1 chimeric Ab clone hNec4.05; chimeric version of hNec4.05
For the molecule B5, the binding result in test [6] is reported as “binds”.
